# Assay results reported in patent publication US11147859B2, “Diffusion enhancing compounds and their use alone or with thrombolytics” (Diffusion Pharmaceuticals LLC, priority 2009, dated 2021).
# System: rabbit small clot embolic stroke model (RSCEM)
# Assay: Rabbit small clot embolic stroke model (RSCEM), quantal dose-response analysis of behavior
# Assay type: in vivo, Male New Zealand white rabbits
# Conditions: for group P50: Mean±SEM
# Description: Methods: This model uses rabbits and is known as RSCEM. Male New Zealand white rabbits were anesthetized using isoflurane (5% induction, 2% maintenance by facemask), the bifurcation of the right carotid artery was exposed and the external carotid was ligated just distal to the bifurcation, where a catheter was inserted into the common carotid and secured with ligatures. The incision was closed around the catheter with the distal ends left accessible outside the neck; the catheter was filled with heparinized saline and plugged with an injection cap. Rabbits were allowed to recover from anesthesia for a minimum of 2 h until they behaved normally. After that time, microdots were prepared from blood drawn from a donor rabbit and allowed to clot at 37° C., as described in detail previously. Microclots were re-suspended in PBS, then washed and allowed to settle, followed by aspiration of the supernatant and spiking of the microclots with tracer quantities of 15-μm radiolabeled microspheres. The specific activity of the particles was determined by removing an aliquot, after which appropriate volumes of PBS solution were added so that a predetermined weight of clot particles were rapidly injected through the catheter and both the syringe and catheter were flushed with 5 ml of normal saline.
# Quantal Dose-Response Analysis: For behavioral analysis, a quantal dose-response data analysis technique was used as described previously. A wide range of lesion volumes is induced to generate both normal and abnormal animals with various behavioral deficits. […] Briefly, to evaluate the quantitative relationship between numbers of clots in the brain and neurological deficits (coma or death), logistic (S-shaped) curves are fitted by computer to the quantal dose-response data (see FIGS. 1 and 2).
# These parameters are measures of the amount of microclots (in mg) that produce neurologic dysfunction in 50% of a group of animals (P50). The P50 values are then calculated as described previously and are presented as Mean±SEM. […] The data were analyzed using the t-test. […]
molecule,measurement,setting,value
"tPA: Tissue plasminogen activator, a protein thrombolytic agent (clot-busting drug); Genentech lots (protein, UniProt P00750 36-562, looked up) Tissue-type plasminogen …: SYQVICRDEKTQMIYQQHQSWLRPVLRSNRVEYCWCNSGRAQCHSVPVKSCSEPRCFNGGTCQQALYFSDFVCQCPEGFAGKCCEIDTRATCYEDQGISYRGTWSTAESGAECTNWNSSALAQKPYSGRRPDAIRLGLGNHNYCRNPDRDSKPWCYVFKAGKYSSEFCSTPACSEGNSDCYFGNGSAYRGTHSLTESGASCLPWNSMILIGKVYTAQNPSAQALGLGKHNYCRNPDGDAKPWCHVLKNRRLTWEYCDVPSCSTCGLRQYSQPQFRIKGGLFADIASHPWQAAIFAKHRRSPGERFLCGGILISSCWILSAAHCFQERFPPHHLTVILGRTYRVVPGEEEQKFEVEKYIVHKEFDDDTYDNDIALLQLKSDSSRCAQESSVVRTVCLPPADLQLPDWTECELSGYGKHEALSPFYSERLKEAHVRLYPSSRCTSQHLLNRTVTDNMLCAGDTRSGGPQANLHDACQGDSGGPLVCLNDGRMTLVGIISWGLGCGQKDVPGVYTKVTNYLDWIRDNMRP",group P50,tPA 3.3 mg/kg IV given 1 hour following embolization,2.48 ± 0.17 mg
same,group P50,tPA 3.3 mg/kg IV given 3 hours following embolization,1.00 ± 0.56 mg
same,effect on behavior / P50 value (in words),tPA given 3 hours following embolization,ineffective
